According to a protein production outcome set (Wang et al. 2014):

Test: label from the status in PepcDB records

| Sequence | protein production |
| --- | --- |
| MFKLHILFALSAPQRIAFWVWRGLFVVALAAAGIGSTRAQSYSFRDYAQSDGLQGMSITGLVEDRRGVVWVATELALHRFERDRFIPVGQDQGLDARYTRALTLDHAGRLWVATANGVFVRNGEQFVQVLDHGKRIRADAGNVIAAYRTGVAVASNGALLALTPEADGHWQVQPLPVRTADGKLREPGTTLLADGQFLWVPCDGGVCRLDARGTVVEALSEADGVPARRWRVIFRERGGRLWLRGGGTIVSRAPGGARFTEHPANPENSFNTLSGSTTMVEDARGRMLTRSDHGLVRWEGTHWTDIGADQGLQLNALVGPLLLQSNGTLWLGTRGMGLQRVLGYDSIEHLTEAQGMPPAPTWTMQRLPNGMLAVGADGGASLLKRNATHAQPWLLEDGAVLSQALNITVAPDGAAWVSYYSGAIARRDPLTGVTSRVMDLPIAGYKLLFDKAGTVWIATPRGLVRGQAAPPYALAPDPAMEGKFIGDIDFDRQGRLWAATRDGLYRRNGTTWVKIPVRGSLPSQDMLQIDFAPNGEIWLSLRDTGLWHGRLQGDGSLLLQAVDDPLISRIMPYILRHDRKGRLWVGSSQGLDLYQNGHWSRITRAEGLLWDDMSSNAFLEDDDGSIWIGSSRGLSHLRDPQRLFAAQPLRVDIAEVRRGAQIVHSGASIAWSETPLEIELSTPGVEGGANRISFRYRVQARWTTSSLSHLTYPLLPPGNYTLEVQALDAYQRSASPIARFQFVIRPPWWRSIAAIAGYLLLAVVAVIALLRWRTAKLLRRKHELEQLVAERTAELEQDKRDLEAARAELSLKATHDELTGLLNRAGILAALREMLLHAARSGRPLAVVLIDLDHFKLVNDQHGHLAGDAVLAGVGHRMDTLVRGDDRIGRYGGEELLALLPGLTPGATHRLDAMHRGICGDYPVDDGWLHVTCSIGVAWFQAGETLEQLLARADAALYRAKRSGRNRIDYDHVPLDRLGQVLPLDPQQRE | failed |
| MSVEAAKNARELLLKEYRAVLSTHSKKWPGFPFGSVVPYCLDAEGRPLILISRIAQHTHNLQADPRCSMLVGERGAEDIQAVGRLTLLAEARQLAEEEVAAAAERYYRYFPESADYHRVHDFDFWVLQPVQWRFIGGFGAIHWLAAERVPLANPFAGEAERGMVEHMNSDHAAAIAHYVELAGLPAHAAAQLAGIDTEGFHLRIGQGLHWLPFPAACGNPGAVRQALVQLARAERWPTVEPEQG | not failed |
| MDMEQRERWATKIGLILAMAGNAIGLGNFVRFPTQVAGNGGGAFMVPYFLALFLLGIPVMWVEWVQGRYGGKYGHGTLGPTFYLMARESLKPRSALWFGLIGGALAFATTTLLNSYYLHLIGWSAAYSWFSITGAYYGKNTAQFFSQYLSNHGLVFLFWGITVVLLGIAVGQGVSKGIERWVKVMMPLLYVFAIILVIYVFALGSPLGQPQWSTIKGFEFIWSPNWGYLKDHLWKVMLAASGQIFFTLSLGMGIIQNYASYLGPKDDVALSGLATVSLNEFAEVVLGGSIAVPLAVAYAPKIVPPDVLAKGSDAALAWISENFGLGFSYTSLPNIFVQMGTAGRFFGALWFLLLWFAGFTSAIAMYNYLTALLEEDLGIKRSVGTWVVFIIYFLLGIPVVYINGYLDQVDAWISFQLALLALFDIIVSVWLFKPDNFWRELHEGALINVPEFYKWITVIIAPIFIALPLFGTFTDLVSKTLGWPAKIAILTMLTIGAIEAYYAIKKKYGEELEKNEVIIKV | failed |
| MKALIFAAAGLLLLLPTFCQSGMENDTNNLAKPTLPIKTFRGAPPNSFEEFPFSALEGWTGATITVKIKCPEESASHLHVKNATMGYLTSSLSTKLIPAIYLLVFVVGVPANAVTLWMLFFRTRSICTTVFYTNLAIADFLFCVTLPFKIAYHLNGNNWVFGEVLCRATTVIFYGNMYCSILLLACISINRYLAIVHPFTYRGLPKHTYALVTCGLVWATVFLYMLPFFILKQEYYLVQPDITTCHDVHNTCESSSPFQLYYFISLAFFGFLIPFVLIIYCYAAIIRTLNAYDHRWLWYVKASLLILVIFTICFAPSNIILIIHHANYYYNNTDGLYFIYLIALCLGSLNSCLDPFLYFLMSKTRNHSTAYLTK | failed |
| MGIHAKLETVQLPLLVSCLFPPLTMPAKDVQICPIAVDTTVFRSRTWDRLKFEIEYGLQRGTTANSYLISADKIALFDPPGESFTDNFVGTLIQRLDLNSLDYVILGHVNANRAHTLKLLLSLAPQATIICSNPAAQNLEKLLADAEVNNPIQVMKGNDHLDLGRGHELTFIPTPSPRYPGQLCTYDPRTEILFTDKLFGAHVCGDQVFDEGWTIYQEDRRYYFDCLLAPAAAQVSAALNKLEAYPAQTYAPSHGPLVRYGLRELTRNYQQWLSEQQAQALNVALIYASAYGNTSTLAQAIARGITKAGVAVTAINAETSNAEEIKEAIGKSAGFIFGSPTLGGHAPTPIQTALGITLANASKTQLCGVFGSFGWSGEAIDMLENKFRDAGFSFGFDTIRVKFKPTDQTLKMCEEAGTDFAQALKKAEKRRQPKSALPESESARTEQALGRLVGSLCVVTAQQGELSSAMLASWVSQATFSPPGLTVAVAKERAIESLLHKNSCFVLNILQEGNHLGLMKHFLKPFAPGGDRFADVATETAENGAPILTESLAYLECRVQQRLECGDHWVLYAVTDRGALLKDGVTAVHHRKSGDHY | failed |
| MAQTQGTRRKVCYYYDGDVGNYYYGQGHPMKPHRIRMTHNLLLNYGLYRKMEIYRPHKANAEEMTKYHSDDYIKFLRSIRPDNMSEYSKQMQRFNVGEDCPVFDGLFEFCQLSTGGSVASAVKLNKQQTDIAVNWAGGLHHAKKSEASGFCYVNDIVLAILELLKYHQRVLYIDIDIHHGDGVEEAFYTTDRVMTVSFHKYGEYFPGTGDLRDIGAGKGKYYAVNYPLRDGIDDESYEAIFKPVMSKVMEMFQPSAVVLQCGSDSLSGDRLGCFNLTIKGHAKCVEFVKSFNLPMLMLGGGGYTIRNVARCWTYETAVALDTEIPNELPYNDYFEYFGPDFKLHISPSNMTNQNTNEYLEKIKQRLFENLRMLPH | failed |
| MSRSGQPPDLKKYMDKKLQIKLNANRMVVGTLRGFDQFMNLVVDNTVEVNGDDKTDIGMVVIRGNSIVTVEALEPVGRS | failed |
| MNIGVIILAAGEGKRFGGDKLLAKIDNTPIIMRTIRIYGDLEKIIIVGKYVNEMLPLLMDQIVIYNPFWNEGISTSLKLGLRFFKDYDAVLVALGDMPFVTKEDVNKIINTFKPNCKAVIPTHKGERGNPVLISKSLFNEIEKLRGDVGARVILNKIKIEELCFIECSEGVLIDIDKKEDLMRLRDFHP | failed |
| MTKIPMFELEEAIDRQPLTVAPTLPVAQVLAVMERQHSSYVLLMESNQTLVGIFTERDLVRLTAIGITITSTPIEEVATSTVTTIQESDIYDVIRTLNLFRQYNVRHLPVVNATHQLIGIMTYEGIRRLLKPIDLLRLWRVSEVMVKSIICADRYQSALSLAELMSDRLISCVVITEKDPSGFPKPIGLVTERDILHLQVQGADLSQTIAADFMGSPPVFIQASDTLWQANQYMRARKIRRLLVVDERNIMVGLLTQTSLIHMIDPVEATLTIETLQQMVGERTVALDAANEKLERKALERKRAKAALQQQIYRERLVNRTAQRIRESLQLDEILVTTVSEVRQFLKAERVLIYRFQPNQQGAIAAESTDSNQTLIQGNAELEAILQEIDPTFYSCDRIHSIPDLQAQGLELTNATLLKRLQLRASLVAPIFAQEILWGLLIVGQNSQPRRWEKLEIDLLKQLATQVGIAIQQARLYAQLAAANQQLLRLAQSDGLTGLANRRHFDQCLDIEWQRAIREQHPLGLILIDIDCFKQFNDTYGHQAGDDCLKAVATALTQVIARPADLVARYGGEEFVVILPNTNEQGILQIAESMRSAVQQLKIPHRSSSVCSSVSLSLGAVTWVPTPHKSPEALIGAADQALYQAKELGRNRVCLGGVRLLETT | failed |
| MAARLLFRRSSQILRSIQRNPQISSSFESPPCPIFHSLTTASPDPSRLSSLTFLRSLSIARRGPTRPKKIDIGAKARQMQNRRLWTYALTFSCIAGFVVIVLNQFQDQLVFYLTPSDAMEKFAENPTKNKFRLGGLVLEGSVAQPAASQEMEFVITDLITDILVRYKGSLPDLFREGHSVVVEGFIKPYTDEVRKEVSTKPISKKARNLDCFFSATEVLAKHDEKYMPQEVAAAIEKNKKIIEAAATEQAAEVAAS | failed |
| MKDILWLMQKTLSVLLKNKKGLLIIISLPIIGTLISFSIYGNAGQGALNIGVINKENESIANDTVKFLEEINHVKVSKVKESEVEDKLTSKKLDGVITLQSGFSESVREGKPSNIEISSIKGDQVTAFIKSYLYNYIDNVAAISKVAGTDQSAFDTMYAGYQKSSFKVKTETLEDTSKNKDMTNQTMGYLIMFMLFSAVNLSGYILKEKENRTYFRLLSTPIDGKKFILSNVGVNMIILTVQIMITILFLTNVFHTNINMPFIVMVGVLMIFALIAIGMSLVIVAFSKNSSSANAMQNMVIVPTCLLAGCYFPYDIMPSAVQKVANFLPQRWLLDTVSKLQQGIPFSELYLNILILFAFAIAFFLIAIYKFGRNNDARNFV | failed |
| MTLDPTPALSALRSGDFRTVQKLARRALKLAKGDPGWLNLAAIAESGLGRPKAALPHFQLALKLAPDFHDARRNLAQTLVILGRLDEAERHLQQLTGTNPQDAEAWALLSQAAMGRGDGDAALAAADRYVDLRPGQARGLMLRATLHGRLGDEAAALADLQQAQMAEPDNVDLLIALSLPLARADHPGAAIDVARRAVELAPRHIPARLTLAMRHVEQGDSDAAKAMYHRVLEIAPDQAEALEQLAHLNDAAENQRLAPQVQTALKTAEAGSLDKAQLHFALARIAAQSADDDGLARNLTRANATMARLMPYDAGADTRLSEALMARFAPGADCDGPGDGPAPFYVLGLPRSGTSLTEAVLGAHPVVHPLGERIAPGRLLAPLIDGGLPFDAQARAAFRKGEAASLPALPEGTRFYTDKMPENYRLVGFLLAARGDARVIHLRRDPRDVALSLWQAHLAGSALNYAYDLGAMAHRFNLYARMMAHWRAIFPDRILDLPYEELVADVTRASQRLAEWLGLVWDPEMARPERSTSQILTLSASQLRQPVHTRSVGKWRKHEAMLAPFIAGLDPGLWPELGQSGI | failed |
| WILASTTEGAPSVAPLNVTVFLNESSDNVDIRWMKPPTKQQDGELVGYRISHVWQSAGISKELLEEVGQNGSRARISVQVHNATCTVRIAAVTRGGVGPFSDPVKIFIPAH | not failed |
| MSLTKVSSLGYPRLGENREWKKLIEAYWAGKVSKNDLFAGAKELRLDFLKKQLNAGLDLIPVGDFSLYDHILDLSVQFNIIPKRFAKEPIDIDLYFAIARGNKENVASSMKKWFNTNYHYIVPEWSKQRPKLNNNRLLDLYLEAREVVGDKAKPVITGPITYVALSTGVEDFTAAVKSLLPLYKQVFTELVKAGASYIQVDEPIFVTDEGKDYLQAAKAVYAYFAKEVPDAKFIFQTYFEGLIDSQVLSQLPVDAFGLDFVYGLEENLEAIKTGAFKGKEIFAGVIDGRNIWSSDFVKTSALLETIEEQSAALTIQPSCSLLHVPVTTKNETDLDPVLRNGLAFADEKLTEVKRLAEHLDGREDPAYDLHIAHFDALQAADFRNVKLEDLSRVATKRPSDFAKRRDIQQEKLHLPLLPTTTIGSFPQSREIRRTRLAWKRGDISDAEYKQFIQAEIERWIRIQEDLDLDVLVHGEFERVDMVEFFGQKLAGFTTTKFGWVQSYGSRAVKPPIIYGDVQHLEPITVEETVYAQSLTDRPVKGMLTGPITITNWSFERTDIPRDQLFNQIGLAIKDEIKLLENAGIAIIQVDEAALREGLPLRKSKQKAYLDDAVHAFHIATSSVKDETQIHTHMCYSKFDEIIDAIRALDADVISIETSRSHGDIIESFETAVYPLGIGLGVYDIHSPRVPTKEEVVANIERPLRQLSPTQFWVNPDCGLKTRQEPETIAALKVLVAATKEVRQKLGNEGHHHHHH | not failed |
